In patent publication US20240132578A1:

Columns and labels:
Experiment in all cases: cell-based or functional assay
[1] = biological target: HIV-1 Env of isolate MGRM-G-019 (subtype G) (HIV-1)
[2] = biological target: HIV-1 Env of isolate VLGCA1 (pseudovirus) (HIV-1)
[3] = biological target: HIV-1 Env of isolate MGRM-G-001 (subtype G) (HIV-1)
[4] = biological target: HIV-1 93IN905 Env (HIV-1)
[5] = biological target: HIV-1 envelope glycoprotein (Env) of isolate 92UG031, subtype A (HIV-1)
[6] = biological target: HIV-1 Env of isolate MGRM-F1-016 (pseudovirus) (HIV-1)
[7] = biological target: HIV-1 94UG103 Env (HIV-1)
[8] = biological target: HIV-1 JR-CSF Env N392Q (HIV-1 (isolate JR-CSF)) (UniProt P20871)
[9] = biological target: HIV-1 MGRM-AG-005 Env (pseudovirus) (HIV-1)
[10] = biological target: HIV-1 envelope glycoprotein (Env) of isolate TRJO4551.58, on pseudovirus (HIV-1)
[11] = biological target: HIV-1 JR-CSF Env W395A (HIV-1 (isolate JR-CSF)) (UniProt P20871)
[12] = biological target: HIV-1 envelope glycoprotein (Env) of isolate MGRM-AE-002, subtype AE (HIV-1)
[13] = biological target: HIV-1 JR-CSF Env F468A (HIV-1 (isolate JR-CSF)) (UniProt P20871)
[14] = biological target: HIV-1 92TH021 Env (HIV-1)
[15] = biological target: HIV-1 JR-CSF Env I420A (HIV-1 (isolate JR-CSF)) (UniProt P20871)
HIV-1 CMU02 Env (HIV-1) = biological target: HIV-1 CMU02 Env (HIV-1)
[16] = biological target: HIV-1 envelope glycoprotein (Env) of isolate NL43, on pseudovirus (HIV-1)
[17] = biological target: HIV-1 Env of isolate MGRM-A-005 (pseudovirus) (HIV-1)
[18] = biological target: HIV-1 Env of isolate MGRM-D-013 (pseudovirus) (HIV-1)
[19] = biological target: HIV-1 Env of pseudovirus isolate MGRM-C-015 (clade C) (HIV-1)
[20] = biological target: HIV-1 Env of isolate MGRM-A-008 (subtype A) (HIV-1)
[21] = biological target: HIV-1 Env of isolate MGRM-A-006 (pseudovirus) (HIV-1)
[22] = biological target: HIV-1 Env of isolate MGRM-D-020 (pseudovirus) (HIV-1)
[23] = biological target: HIV-1 Env of isolate MGRM-AG-011 (subtype AG) (HIV-1)
[24] = biological target: HIV-1 Env of isolate MGRM-Chronic-B-004 (HIV-1)
[25] = biological target: HIV-1 Env of isolate MGRM-AG-003 (subtype AG) (HIV-1)
[26] = biological target: HIV-1 Env of isolate 94KE105 (subtype AC) (HIV-1)
[27] = biological target: HIV-1 envelope glycoprotein (Env) of isolate MGRM-C-012 (HIV-1)
[28] = biological target: HIV-1 envelope glycoprotein (Env) of isolate MGRM-C-023 (HIV-1)
[29] = biological target: HIV-1 envelope glycoprotein (Env) of isolate MGRM-C-015 (HIV-1)
[30] = biological target: HIV-1 IAVI-C18 envelope (Env) on pseudovirus (HIV-1)
[31] = biological target: HIV-1 MGRM-AE-001 Env (pseudovirus) (HIV-1)
[32] = biological target: HIV-1 MGRM-AE-005 Env (pseudovirus) (HIV-1)
[33] = biological target: HIV-1 Env of isolate MGRM-D-016 (clade D pseudovirus) (HIV-1)
[34] = biological target: HIV-1 MGRM-G-006 Env (pseudovirus) (HIV-1)
[35] = biological target: HIV-1 Env of isolate MGRM-D-002 (clade D pseudovirus) (HIV-1)
[36] = biological target: HIV-1 Env of pseudovirus MGRM-F1-014 (clade F) (HIV-1)
[37] = biological target: HIV-1 Env of isolate 92RW026 (clade A pseudovirus) (HIV-1)
[38] = biological target: HIV-1 Env of isolate MGRM-D-005 (clade D pseudovirus) (HIV-1)
[39] = biological target: HIV-1 Env of isolate MGRM-A-014 (clade A pseudovirus) (HIV-1)
[40] = biological target: HIV-1 IAVI-C22 envelope (Env) on pseudovirus (HIV-1)
[41] = biological target: HIV-1 Env of pseudovirus MGRM-G-014 (HIV-1)

| Substance | IC50 (µg/mL), pseudovirus neutralization [1] | IC50 (µg/mL), single-round pseudovirus neutralization [2] | IC50 (µg/mL), pseudovirus neutralization [3] | IC50, pseudovirus neutralization [4] | IC50, pseudovirus neutralization [5] | IC50 (µg/mL), pseudovirus neutralization [6] | IC50, pseudovirus neutralization [7] | Fold IC50 increase relative to wild-type (pseudovirus neutralization) [8] | IC50, pseudovirus neutralization [10] | Fold IC50 increase relative to wild-type (pseudovirus neutralization) [11] | IC50, pseudovirus neutralization [12] | Fold IC50 increase relative to wild-type (pseudovirus neutralization) [13] | IC50, pseudovirus neutralization [14] | Fold IC50 increase relative to wild-type (pseudovirus neutralization) [15] | IC50, pseudovirus neutralization (HIV-1 CMU02 Env (HIV-1)) | IC50, pseudovirus neutralization [16] | other results |
| --- | --- | --- | --- | --- | --- | --- | --- | --- | --- | --- | --- | --- | --- | --- | --- | --- | --- |
| 4995_P16 (PGT-145) (antibody) | 0.041 µg/mL | 8.01 µg/mL | 0.028 µg/mL | – | – | – | – | – | – | – | – | – | – | – | – | – | – |
| 5123_A06 (PGT-125) (antibody) | – | – | – | 0.0137 µg/mL | > 50 µg/mL | > 50 µg/mL | 0.0124 µg/mL | 1.2 fold | 0.019 µg/mL | 0.9 fold | > 50 µg/mL | 1 fold | 0.0066 µg/mL | 1.1 fold | > 10 µg/mL | > 50 µg/mL | Neutralization by PGT-125, IC50 [9]: > 10 µg/mL; Neutralization by PGT-125, IC80 [9]: > 10 µg/mL; Neutralization by PGT-125, IC90 [9]: > 10 µg/mL; Neutralization by PGT-125, IC95 [9]: > 10 µg/mL |
| 4970_K22 (PGT-144) (antibody) | > 50 µg/mL | > 50 µg/mL | > 50 µg/mL | – | – | – | – | – | – | – | – | – | – | – | – | – | – |
| 5345_I01 (PGT-137) (antibody) | – | – | – | – | – | – | – | – | – | – | – | – | – | – | – | – | IC50 (µg/mL), pseudovirus neutralization [17]: > 50 µg/mL; IC50 (µg/mL), pseudovirus neutralization [18]: > 50 µg/mL; IC50, pseudovirus neutralization [19]: 1.98 µg/mL; IC50, pseudovirus neutralization [20]: > 50 µg/mL; IC50 (µg/mL), pseudovirus neutralization [21]: > 50 µg/mL; IC50 (µg/mL), pseudovirus neutralization [22]: > 50 µg/mL; IC50, pseudovirus neutralization [23]: > 50 µg/mL; IC50 (µg/mL), pseudovirus neutralization [24]: > 50 µg/mL; IC50, pseudovirus neutralization [25]: > 50 µg/mL; IC50, pseudovirus neutralization [26]: 18.5 µg/mL |
| 5141_B17 (PGT-126) (antibody) | – | – | – | 0.0194 µg/mL | > 50 µg/mL | > 50 µg/mL | 0.0091 µg/mL | 1.6 fold | 0.025 µg/mL | 0.6 fold | > 50 µg/mL | 0.7 fold | 0.115 µg/mL | 0.6 fold | > 10 µg/mL | > 50 µg/mL | – |
| 5329_C19 (PGT-136) (antibody) | – | – | – | – | – | – | – | – | – | – | – | – | – | – | – | – | IC50 (µg/mL), pseudovirus neutralization [17]: > 50 µg/mL; IC50 (µg/mL), pseudovirus neutralization [18]: > 50 µg/mL; IC50, pseudovirus neutralization [19]: 11.1 µg/mL; IC50, pseudovirus neutralization [20]: > 50 µg/mL; IC50 (µg/mL), pseudovirus neutralization [21]: > 50 µg/mL; IC50 (µg/mL), pseudovirus neutralization [22]: > 50 µg/mL; IC50, pseudovirus neutralization [23]: > 50 µg/mL; IC50 (µg/mL), pseudovirus neutralization [24]: > 50 µg/mL; IC50, pseudovirus neutralization [25]: > 50 µg/mL; IC50, pseudovirus neutralization [26]: > 50 µg/mL |
| 4877_D15 (PGT-122) (antibody) | – | – | – | 0.0138 µg/mL | > 50 µg/mL | 4.81 µg/mL | 1.46 µg/mL | – | > 50 µg/mL | – | > 50 µg/mL | – | > 10 µg/mL | – | > 10 µg/mL | > 50 µg/mL | – |
| 5343_B08 (PGT-135) (antibody) | – | – | – | – | – | – | – | > 250 fold | – | 0.6 fold | – | 1.1 fold | – | 1.4 fold | – | – | IC50 (µg/mL), pseudovirus neutralization [17]: > 50 µg/mL; IC50 (µg/mL), pseudovirus neutralization [18]: > 50 µg/mL; IC50, pseudovirus neutralization [19]: 0.104 µg/mL; IC50, pseudovirus neutralization [20]: > 50 µg/mL; IC50 (µg/mL), pseudovirus neutralization [21]: > 50 µg/mL; IC50 (µg/mL), pseudovirus neutralization [22]: > 50 µg/mL; IC50, pseudovirus neutralization [23]: > 50 µg/mL; IC50 (µg/mL), pseudovirus neutralization [24]: > 50 µg/mL; IC50, pseudovirus neutralization [25]: > 50 µg/mL; IC50, pseudovirus neutralization [26]: 0.063 µg/mL |
| 4995_E20 (PGT-142) (antibody) | 5.95 µg/mL | 2.75 µg/mL | 0.362 µg/mL | – | – | – | – | – | – | – | – | – | – | – | – | – | – |
| 4980_N08 (PGT-143) (antibody) | 4.77 µg/mL | 17.4 µg/mL | 0.423 µg/mL | – | – | – | – | – | – | – | – | – | – | – | – | – | – |
| 1496_C09 (PG9) (TCN-109) (antibody) | 14.6 µg/mL | – | 0.166 µg/mL | 0.048 µg/mL | – | – | 0.31 µg/mL | – | – | – | – | – | 0.103 µg/mL | – | – | – | IC50 (µg/ml), pseudovirus neutralization [27]: 0.24 µg/mL; IC50 (µg/ml), pseudovirus neutralization [28]: 0.51 µg/mL; IC50 (µg/ml), pseudovirus neutralization [29]: 0.5 µg/mL; neutralization IC50 [30]: 0.0535 µg/mL; IC50 (µg/ml), pseudovirus neutralization [9]: 29.7 µg/mL; IC50 (µg/ml), pseudovirus neutralization [31]: 2.97 µg/mL; IC50 (µg/ml), pseudovirus neutralization [32]: 0.16 µg/mL; IC50, pseudovirus neutralization [33]: 0.1 µg/mL; IC50 (µg/ml), pseudovirus neutralization [34]: 0.51 µg/mL; IC50, pseudovirus neutralization [35]: 0.027 µg/mL; IC50 [36]: 0.01 µg/mL; IC50 (µg/ml), pseudovirus neutralization [37]: 0.27 µg/mL; IC50, pseudovirus neutralization [38]: 0.59 µg/mL; IC50 (µg/ml), pseudovirus neutralization [39]: 0.62 µg/mL; neutralization IC50 [40]: 24.9 µg/mL; IC50 (µg/mL), pseudovirus neutralization [2]: 0.069 µg/mL; IC50 (µg/ml), pseudovirus neutralization [41]: 6.32 µg/mL |
| 4993_K13 (PGT-141) (antibody) | 20.3 µg/mL | 2.07 µg/mL | 0.392 µg/mL | – | – | – | – | – | – | – | – | – | – | – | – | – | – |
| PGV04 (antibody) | 0.027 µg/mL | – | > 50 µg/mL | – | – | – | – | – | – | – | – | – | – | – | – | – | IC50 (µg/mL), pseudovirus neutralization [2]: 0.024 µg/mL |
| 5145_B14 (PGT-127) (antibody) | – | – | – | – | > 50 µg/mL | > 50 µg/mL | – | 1.1 fold | 0.063 µg/mL | 1.6 fold | > 50 µg/mL | 3 fold | – | 1.8 fold | – | > 50 µg/mL | – |
| 4838_L06 (PGT-121) (antibody) | – | – | – | – | > 50 µg/mL | 0.931 µg/mL | – | – | 7.09 µg/mL | – | > 50 µg/mL | – | > 10 µg/mL | – | > 10 µg/mL | > 50 µg/mL | – |
| 4858_P08 (PGT-123) (antibody) | – | – | – | 0.0071 µg/mL | > 50 µg/mL | 4.95 µg/mL | 0.846 µg/mL | 1 fold | 16.9 µg/mL | 0.4 fold | > 50 µg/mL | 0.5 fold | > 10 µg/mL | 3.2 fold | > 10 µg/mL | > 50 µg/mL | – |
